How the values were obtained:
[1] = target: MBP-tagged, biotinylated CD320ΔE88 (Avi Tag) (human) (UniProt Q9NPF0); assay: ELISA; solid-phase binding assay: biotinylated MBP-tagged receptor on Neutravidin plates, tag-less TC serially diluted in 20 mM Tris pH 7.5, 0.5 mM CaCl2, 150 mM NaCl, 0.05% Tween-20, 1 h RT; TC detected with antibody A-5; single-site fit, n=5
[2] = target: MBP-tagged, biotinylated CD320 (CD320AVI) (human) (UniProt Q9NPF0); assay: as above
[3] = target: CD320 extracellular, TC-binding part (MBP cleaved), as used for biochemical analysis of the complex (human) (UniProt Q9NPF0); assay: cross-linking; purified complex at 10 mg/ml cross-linked with glutaraldehyde, 1 h RT, then high-mass MALDI-TOF mass spectrometry
[4] = target: MBP-tagged, biotinylated CD320 (CD320AVI) (human) (UniProt Q9NPF0); assay: ELISA; solid-phase binding assay as a2, TC diluted in buffer with 100 mM sodium acetate pH 4.8, 0.5 mM CaCl2, 150 mM NaCl; n=5
[5] = target: CD320(Gly4Ser)4 (flexible linker mutant: EGF-like domain replaced by (Gly4Ser)4) (human) (UniProt Q9NPF0); assay: native MS; native ESI-MS of the purified complex and of its individually purified SEC peaks
CD320(Gly4Ser)4 (flexible linker mutant: EGF-like domain replaced by (Gly4Ser)4) (human), sequence (Q9NPF0 other isoform, or with tags, fused parts or gaps, change not shown): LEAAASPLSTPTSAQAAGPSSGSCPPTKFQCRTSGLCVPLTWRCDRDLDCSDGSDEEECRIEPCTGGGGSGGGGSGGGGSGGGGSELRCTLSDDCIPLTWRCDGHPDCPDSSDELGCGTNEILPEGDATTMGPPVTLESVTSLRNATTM

[6] = target: MBP-tagged, biotinylated CD320 (CD320AVI) (human) (UniProt Q9NPF0); assay: ELISA; solid-phase binding assay as a2, TC diluted in buffer with 100 mM Tris-HCl pH 7.5, 0.5 mM CaCl2, 150 mM NaCl; n=5
[7] = target: CD320 extracellular, TC-binding part (MBP cleaved), as used for biochemical analysis of the complex (human) (UniProt Q9NPF0); assay: co-expression and co-purification; TC construct and His9-MBP-CD320 construct co-expressed and secreted from Sf21 cells, complex captured from the medium on Ni-NTA through the receptor's tag

Kd [1]	Kd [2]	stoichiometry N [3]	Kd [4]	stoichiometry N [5]	Kd [6]	stoichiometry N [7]	Binder
1.5 nM	1.5 nM	1 TC:CD320	58 nM	1 TC:CD320	1 nM		human transcobalamin (holo-TC, cyanocobalamin-bound) (natural protein) EMCEIPEMDSHLVEKLGQHLLPWMDRLSLEHLNPSIYVGLRLSSLQAGTKEDLYLHSLKLGYQQCLLGSAFSEDDGDCQGKPSMGQLALYLLALRANCEFVRGHKGDRLVSQLKWFLEDEKRAIGHDHKGHPHTSYYQYGLGILALCLHQKRVHDSVVDKLLYAVEPFHQGHHSVDTAAMAGLAFTCLKRSNFNPGRRQRITMAIRTVQEEILKAQTPEGHFGNVYSTPLALQFLMTSPMRGAELGTACLKARVALLASLQDGAFQNALMISQLLPVLNHKTYIDLIFPDCLAPRVMLEPAAETIPQTQEIISVTLQVLSLLPPYRQSISVLAGSTVEDVLKKAHELGGFTYETQASLSGPYLTSVMGKAAGEREFWQLLRDPNTPLLQGIADYRPKDGETIELRLVSW
						1 TCα:CD320	TCα (α domain of human transcobalamin, residues 1-290) (domain or fragment) EMCEIPEMDSHLVEKLGQHLLPWMDRLSLEHLNPSIYVGLRLSSLQAGTKEDLYLHSLKLGYQQCLLGSAFSEDDGDCQGKPSMGQLALYLLALRANCEFVRGHKGDRLVSQLKWFLEDEKRAIGHDHKGHPHTSYYQYGLGILALCLHQKRVHDSVVDKLLYAVEPFHQGHHSVDTAAMAGLAFTCLKRSNFNPGRRQRITMAIRTVQEEILKAQTPEGHFGNVYSTPLALQFLMTSPMRGAELGTACLKARVALLASLQDGAFQNALMISQLLPVLNHKTYIDLIFPD
